Assay results from patent CN116284426A (SUNSHINE GUOJIAN PHARMACEUTICAL SHANGHAI CO LTD, dated 2023).

B1: SP4VHL-32H2 (bispecific antibody, human IgG1, kappa)
heavy: not shown
light: DVVMTQSPLSLPVTLGQPASISCRSSQSLVYNNGNTYLHWYQQRPGQSPRLLIYKVSNRFSGVPDRFSGSGSGTDFTLKISRVEAEDVGVYFCSQSTHVPLTFGQGTKVEIKRTVAAPSVFIFPPSDEQLKSGTASVVCLLNNFYPREAKVQWKVDNALQSGNSQESVTEQDSKDSTYSLSSTLTLSKADYEKHKVYACEVTHQGLSSPVTKSFNRGEC
notes: The anti-CD3 scFv (VH-L-VL of humanized SP34) sits at the N-terminus of the heavy chain; also called 结构2
B2: 32H2Fab-SP4VHL (bispecific antibody)
heavy: EVQLVESGGGLVKPGGSLRLSCAASGFSFRTYAMSWVRQAPGKSLEWVATISSGSSYIYYPDSVKGRFTVSRDNAKNSLYLQMNSLRAEDTAVYYCTCYRMETFEYWGQGTLVTVSSASTKGPSVFPLAPSSKSTSGGTAALGCLVKDYFPEPVTVSWNSGALTSGVHTFPAVLQSSGLYSLSSVVTVPSSSLGTQTYICNVNHKPSNTKVDKKVEPKSCGGGGSGGGGSGGGGSEVQLVESGGGLVQPGGSLRLSCAASGFTFNTYAMNWVRQAPGKGLEWVARIRSKYNNYATYYADSVKDRFTISRDDSKNTLYLQMNSLRAEDTAVYYCVRHGNFGNSYVSWFAYWGQGTLVTVSSGGGGSGGGGSGGGGSGGGGSQAVVTQEPSLTVSPGGTVTLTCRSSTGAVTTSNYANWVQQKPGQAPRGLIGGTNKRAPGVPARFSGSLLGGKAALTLSGAQPEDEAEYYCALWYSNLWVFGQGTKVEIK
light: B1 light
notes: also called 32H2Fab-SPVHL; 结构10
B3: 32H2CH1-SP4VHL-hik (bispecific antibody, human IgG1, kappa)
heavy 1: EVQLVESGGGLVKPGGSLRLSCAASGFSFRTYAMSWVRQAPGKSLEWVATISSGSSYIYYPDSVKGRFTVSRDNAKNSLYLQMNSLRAEDTAVYYCTCYRMETFEYWGQGTLVTVSSASTKGPSVFPLAPSSKSTSGGTAALGCLVKDYFPEPVTVSWNSGALTSGVHTFPAVLQSSGLYSLSSVVTVPSSSLGTQTYICNVNHKPSNTKVDKKVEPKSCGGGGSGGGGSGGGGSEVQLVESGGGLVQPGGSLRLSCAASGFTFNTYAMNWVRQAPGKGLEWVARIRSKYNNYATYYADSVKDRFTISRDDSKNTLYLQMNSLRAEDTAVYYCVRHGNFGNSYVSWFAYWGQGTLVTVSSGGGGSGGGGSGGGGSGGGGSQAVVTQEPSLTVSPGGTVTLTCRSSTGAVTTSNYANWVQQKPGQAPRGLIGGTNKRAPGVPARFSGSLLGGKAALTLSGAQPEDEAEYYCALWYSNLWVFGQGTKVEIKGGGSDKTHTCPPCPAPELLGGPSVFLFPPKPKDTLMISRTPEVTCVVVDVSHEDPEVKFNWYVDGVEVHNAKTKPREEQYNSTYRVVSVLTVLHQDWLNGKEYKCKVSNKALPAPIEKTISKAKGQPREPQVYTLPPCREEMTKNQVSLSCAVKGFYPSDIAVEWESNGQPENNYKTTPPVLDSDGSFFLVSKLTVDKSRWQQGNVFSCSVMHEALHNHYTQKSLSLSPGK
heavy 2: not shown
light: B1 light
notes: also called 结构8
B4: 32H2CH1-SP4VHL-KIH (bispecific antibody, human IgG1, kappa)
heavy 1: not shown
heavy 2: EVQLVESGGGLVKPGGSLRLSCAASGFSFRTYAMSWVRQAPGKSLEWVATISSGSSYIYYPDSVKGRFTVSRDNAKNSLYLQMNSLRAEDTAVYYCTCYRMETFEYWGQGTLVTVSSASTKGPSVFPLAPSSKSTSGGTAALGCLVKDYFPEPVTVSWNSGALTSGVHTFPAVLQSSGLYSLSSVVTVPSSSLGTQTYICNVNHKPSNTKVDKKVEPKSCDKTHTCPPCPAPELLGGPSVFLFPPKPKDTLMISRTPEVTCVVVDVSHEDPEVKFNWYVDGVEVHNAKTKPREEQYNSTYRVVSVLTVLHQDWLNGKEYKCKVSNKALPAPIEKTISKAKGQPREPQVYTLPPCREEMTKNQVSLSCAVKGFYPSDIAVEWESNGQPENNYKTTPPVLDSDGSFFLVSKLTVDKSRWQQGNVFSCSVMHEALHNHYTQKSLSLSPGK
light: B1 light
notes: also called 结构9
B5: 32H2CH1-SP4VHL (bispecific antibody)
heavy: not shown
light: B1 light
notes: also called 结构7
B6: 32H2-SP4VHL (bispecific antibody, human IgG1, kappa)
heavy: not shown
light: B1 light
notes: also called 结构1
B7: 32H2-SP4VHL-L (bispecific antibody, human IgG1, kappa)
heavy: not shown
light: DVVMTQSPLSLPVTLGQPASISCRSSQSLVYNNGNTYLHWYQQRPGQSPRLLIYKVSNRFSGVPDRFSGSGSGTDFTLKISRVEAEDVGVYFCSQSTHVPLTFGQGTKVEIKRTVAAPSVFIFPPSDEQLKSGTASVVCLLNNFYPREAKVQWKVDNALQSGNSQESVTEQDSKDSTYSLSSTLTLSKADYEKHKVYACEVTHQGLSSPVTKSFNRGECGGGGSGGGGSGGGGSEVQLVESGGGLVQPGGSLRLSCAASGFTFNTYAMNWVRQAPGKGLEWVARIRSKYNNYATYYADSVKDRFTISRDDSKNTLYLQMNSLRAEDTAVYYCVRHGNFGNSYVSWFAYWGQGTLVTVSSGGGGSGGGGSGGGGSGGGGSQAVVTQEPSLTVSPGGTVTLTCRSSTGAVTTSNYANWVQQKPGQAPRGLIGGTNKRAPGVPARFSGSLLGGKAALTLSGAQPEDEAEYYCALWYSNLWVFGQGTKVEIK
notes: also called 结构19
B8: SP4VHL-32H2-L (bispecific antibody, human IgG1, kappa)
heavy: not shown
light: EVQLVESGGGLVQPGGSLRLSCAASGFTFNTYAMNWVRQAPGKGLEWVARIRSKYNNYATYYADSVKDRFTISRDDSKNTLYLQMNSLRAEDTAVYYCVRHGNFGNSYVSWFAYWGQGTLVTVSSGGGGSGGGGSGGGGSGGGGSQAVVTQEPSLTVSPGGTVTLTCRSSTGAVTTSNYANWVQQKPGQAPRGLIGGTNKRAPGVPARFSGSLLGGKAALTLSGAQPEDEAEYYCALWYSNLWVFGQGTKVEIKGGGGSGGGGSGGGGSDVVMTQSPLSLPVTLGQPASISCRSSQSLVYNNGNTYLHWYQQRPGQSPRLLIYKVSNRFSGVPDRFSGSGSGTDFTLKISRVEAEDVGVYFCSQSTHVPLTFGQGTKVEIKRTVAAPSVFIFPPSDEQLKSGTASVVCLLNNFYPREAKVQWKVDNALQSGNSQESVTEQDSKDSTYSLSSTLTLSKADYEKHKVYACEVTHQGLSSPVTKSFNRGEC
notes: also called 结构18

Target: T1, GUCY2C on tumour cells (CW2, CW2-GCC#1, T84) (human, UniProt P25092 24-1073)
T1 sequence (P25092 24-1073): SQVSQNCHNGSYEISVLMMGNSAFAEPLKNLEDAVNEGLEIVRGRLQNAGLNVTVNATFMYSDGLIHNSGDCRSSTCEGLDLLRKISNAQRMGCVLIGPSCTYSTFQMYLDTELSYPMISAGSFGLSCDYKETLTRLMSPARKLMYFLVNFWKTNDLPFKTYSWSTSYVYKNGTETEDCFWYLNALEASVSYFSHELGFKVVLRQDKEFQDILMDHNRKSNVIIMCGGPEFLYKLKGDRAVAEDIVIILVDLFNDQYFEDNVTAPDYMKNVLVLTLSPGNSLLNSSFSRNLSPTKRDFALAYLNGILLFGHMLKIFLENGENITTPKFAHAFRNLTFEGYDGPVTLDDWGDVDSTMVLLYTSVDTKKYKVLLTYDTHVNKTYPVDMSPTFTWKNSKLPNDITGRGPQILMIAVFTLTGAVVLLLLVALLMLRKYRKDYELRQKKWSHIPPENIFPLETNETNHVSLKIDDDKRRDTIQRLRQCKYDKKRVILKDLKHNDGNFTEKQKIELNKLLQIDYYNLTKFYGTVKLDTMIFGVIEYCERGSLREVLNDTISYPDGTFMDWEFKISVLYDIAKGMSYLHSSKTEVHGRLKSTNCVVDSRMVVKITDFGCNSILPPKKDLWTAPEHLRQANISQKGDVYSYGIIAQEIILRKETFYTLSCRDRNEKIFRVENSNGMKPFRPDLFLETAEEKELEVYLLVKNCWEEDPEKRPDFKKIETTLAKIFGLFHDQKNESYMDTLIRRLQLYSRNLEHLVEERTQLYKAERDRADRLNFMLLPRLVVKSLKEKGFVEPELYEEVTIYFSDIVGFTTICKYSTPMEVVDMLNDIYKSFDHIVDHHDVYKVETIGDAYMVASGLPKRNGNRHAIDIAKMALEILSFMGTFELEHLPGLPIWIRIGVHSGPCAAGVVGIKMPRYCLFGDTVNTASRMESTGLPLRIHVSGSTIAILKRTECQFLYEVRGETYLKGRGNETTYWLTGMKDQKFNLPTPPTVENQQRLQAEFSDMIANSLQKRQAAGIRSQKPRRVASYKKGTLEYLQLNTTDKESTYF
Experiment: cell-based or functional assay

Binder | IC50 of T-cell-mediated killing of T84 cells [nM]
B1 | 0.004
B2 | 1.25
B3 | 0.002
B4 | 0.366

Target: T2, CD3ε-ECD-his (UniProt P07766 23-126)
T2 construct: extracellular domain; also called CD3ε蛋白
T2 sequence (P07766 other isoform, or with tags, fused parts or gaps): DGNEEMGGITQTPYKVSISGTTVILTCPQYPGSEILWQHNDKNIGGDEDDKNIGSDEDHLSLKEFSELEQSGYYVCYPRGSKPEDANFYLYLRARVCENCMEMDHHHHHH
Experiment: ELISA, CD3ε-ECD-his coated at 1 ug/mL (Table 19)

Binder | EC50 [nM]
B1 | 0.792
B3 | 1.92
B5 | 0.309
B4 | 1.31

Target: T2, CD3ε-ECD-his
Experiment: ELISA, CD3ε-ECD-his coated; reference SP34

Binder | fold weaker affinity than SP34 [fold]
B1 | ~5
B3 | ~10
B5 | ~2
B4 | ~10

Target: T2, CD3ε-ECD-his
Experiment: ELISA, CD3ε-ECD-his coated at 1 ug/mL, anti-human IgG Fab HRP (Table 14)

Binder | EC50 [nM]
B1 | 0.59
B2 | 6.12
B5 | 0.37
B6 | 0.3
B7 | 1.09
B8 | 1.16

Target: T3, GUCY2C-His蛋白 (human GUCY2C extracellular region with C-terminal 6xHis) (human, UniProt P25092 24-430)
T3 construct: extracellular domain; Made in HEK-293F with an unspecified N-terminal signal peptide; also called 人GUCY2C-His蛋白
T3 sequence (P25092 other isoform, or with tags, fused parts or gaps): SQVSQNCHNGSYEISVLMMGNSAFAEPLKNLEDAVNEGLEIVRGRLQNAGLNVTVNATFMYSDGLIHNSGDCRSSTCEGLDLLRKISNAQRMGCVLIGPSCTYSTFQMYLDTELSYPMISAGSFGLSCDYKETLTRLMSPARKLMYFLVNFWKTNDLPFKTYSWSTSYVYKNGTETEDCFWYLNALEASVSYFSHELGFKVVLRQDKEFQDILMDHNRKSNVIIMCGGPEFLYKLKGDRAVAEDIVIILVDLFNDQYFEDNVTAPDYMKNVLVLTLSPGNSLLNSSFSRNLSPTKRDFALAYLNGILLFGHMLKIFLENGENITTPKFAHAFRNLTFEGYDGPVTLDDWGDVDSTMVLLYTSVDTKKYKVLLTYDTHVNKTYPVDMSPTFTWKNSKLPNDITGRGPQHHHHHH
Experiment: ELISA, GUCY2C-His coated, anti-human IgG Fab HRP (Table 17)

Binder | EC50 [nM]
B1 | 1.84
B3 | 0.428
B5 | 0.188
B4 | 0.264

Target: T4, GUCY2C-Fc蛋白 (human GUCY2C extracellular region fused to human IgG1 Fc) (human, UniProt P25092 24-430)
T4 construct: extracellular domain; Made in HEK-293F with an unspecified N-terminal signal peptide; also called 人GUCY2C-Fc蛋白; not shown: human IgG1 Fc at the C-terminus in place of the 6xHis tag
T4 sequence (P25092 24-430 limits assumed): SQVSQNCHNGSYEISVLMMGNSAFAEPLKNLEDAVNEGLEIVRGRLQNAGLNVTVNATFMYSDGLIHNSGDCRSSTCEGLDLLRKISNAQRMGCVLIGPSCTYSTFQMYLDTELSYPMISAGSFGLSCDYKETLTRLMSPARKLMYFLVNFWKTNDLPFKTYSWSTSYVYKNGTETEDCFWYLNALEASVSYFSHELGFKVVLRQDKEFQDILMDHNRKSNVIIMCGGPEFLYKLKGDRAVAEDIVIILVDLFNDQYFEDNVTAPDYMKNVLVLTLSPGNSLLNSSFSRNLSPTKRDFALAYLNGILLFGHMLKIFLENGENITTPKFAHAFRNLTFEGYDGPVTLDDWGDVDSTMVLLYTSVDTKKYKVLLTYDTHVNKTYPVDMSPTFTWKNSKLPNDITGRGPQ
Experiment: ELISA, GUCY2C-Fc coated, anti-human IgG Fab HRP (Table 11)

Binder | EC50 [nM]
B1 | 1
B2 | 5.08
B5 | 0.24
B7 | 0.38

Target: T4, GUCY2C-Fc蛋白 (human GUCY2C extracellular …)
Experiment: ELISA, GUCY2C-Fc coated, anti-human IgG Fab HRP (Table 12)

Binder | EC50 [nM]
B1 | 1.19
B2 | 1.04
B5 | 0.33
B6 | 0.29
B7 | 0.43
B8 | 0.78

Target: T1, GUCY2C on tumour cells (CW2, CW2-GCC#1, …)
Experiment: cell-based or functional assay
Remark: another data set of the same source

Binder | IC50 of T-cell-mediated killing of CW2 cells (CTG, E:T 5:1, 96 h) [nM]
B1 | 0.46
B2 | 51
B5 | 0.05
B7 | 0.08

Target: T3, GUCY2C-His蛋白 (human GUCY2C …)
Experiment: ELISA, GUCY2C-His coated, anti-human IgG Fab HRP (Table 9)

Binder | EC50 [nM]
B1 | 1.86
B2 | 35.5
B5 | 0.29
B7 | 0.49

Target: T3, GUCY2C-His蛋白 (human GUCY2C …)
Experiment: ELISA, GUCY2C-His coated, anti-human IgG Fab HRP (Table 10)

Binder | EC50 [nM]
B1 | 2.09
B2 | 30.1
B5 | 0.23
B6 | 0.26
B7 | 0.49
B8 | 1.21

Target: T4, GUCY2C-Fc蛋白 (human GUCY2C extracellular …)
Experiment: ELISA, GUCY2C-Fc coated, anti-human IgG Fab HRP (Table 18)

Binder | EC50 [nM]
B1 | 2.83
B3 | 0.869
B5 | 0.521
B4 | 0.681
